Reference: paper PMC9396414, “An antagonistic monoclonal anti–Plexin-B1 antibody exerts therapeutic effects in mouse models of postmenopausal osteoporosis and multiple sclerosis” (The Journal of Biological Chemistry, 2022)

Molecular target: T1, human Sema4D (semaphorin 4D) (human, UniProt Q92854 22-734)
T1 construct: Semaphorin 4D (Sema4D, CD100), human, recombinant protein bought from R&D Systems, cat. no; 7470-S4; check against the vendor's data sheet; also called CD100; source: bought: R&D (7470-S4)
T1 sequence (looked up): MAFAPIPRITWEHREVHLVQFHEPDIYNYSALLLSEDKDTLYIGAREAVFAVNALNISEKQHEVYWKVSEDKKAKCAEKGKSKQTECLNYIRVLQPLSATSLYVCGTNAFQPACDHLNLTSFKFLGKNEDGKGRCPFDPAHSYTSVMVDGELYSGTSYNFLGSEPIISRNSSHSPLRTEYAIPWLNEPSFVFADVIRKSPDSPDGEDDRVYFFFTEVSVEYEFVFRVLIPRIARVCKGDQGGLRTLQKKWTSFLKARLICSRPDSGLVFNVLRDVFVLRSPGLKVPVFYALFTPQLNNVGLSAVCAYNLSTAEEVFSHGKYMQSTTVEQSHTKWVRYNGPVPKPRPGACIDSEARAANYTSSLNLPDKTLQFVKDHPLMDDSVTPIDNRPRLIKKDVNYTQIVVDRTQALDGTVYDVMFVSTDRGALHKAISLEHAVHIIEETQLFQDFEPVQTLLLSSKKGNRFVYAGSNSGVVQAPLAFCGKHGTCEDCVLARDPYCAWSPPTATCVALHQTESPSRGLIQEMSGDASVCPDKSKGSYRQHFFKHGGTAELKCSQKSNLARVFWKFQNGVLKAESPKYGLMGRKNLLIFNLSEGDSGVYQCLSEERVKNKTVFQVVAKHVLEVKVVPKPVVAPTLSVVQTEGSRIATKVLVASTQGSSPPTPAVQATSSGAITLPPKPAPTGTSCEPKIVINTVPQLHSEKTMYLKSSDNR
Assay: BLI; OctetRED384; 5 μg/ml biotinylated human Plexin-B1 (20–535)-Avi-6xHis captured on an SA biosensor in 1xKinetics buffer; then 50 nM antibody or buffer, then 50 nM human Sema4D; qualitative analysis of association curves
Conditions: both partners purified

B1: biotinylated human Plexin-B1 (20–535)-Avi-6xHis (domain or fragment, UniProt O43157 20-535, looked up)
chain: LQPLPPTAFTPNGTYLQHLARDPTSGTLYLGATNFLFQLSPGLQLEATVSTGPVLDSRDCLPPVMPDECPQAQPTNNPNQLLLVSPGALVVCGSVHQGVCEQRRLGQLEQLLLRPERPGDTQYVAANDPAVSTVGLVAQGLAGEPLLFVGRGYTSRGVGGGIPPITTRALWPPDPQAAFSYEETAKLAVGRLSEYSHHFVSAFARGASAYFLFLRRDLQAQSRAFRAYVSRVCLRDQHYYSYVELPLACEGGRYGLIQAAAVATSREVAHGEVLFAAFSSAAPPTVGRPPSAAAGASGASALCAFPLDEVDRLANRTRDACYTREGRAEDGTEVAYIEYDVNSDCAQLPVDTLDAYPCGSDHTPSPMASRVPLEATPILEWPGIQLTAVAVTMEDGHTIAFLGDSQGQLHRVYLGPGSDGHPYSTQSIQQGSAVSRDLTFDGTFEHLYVMTQSTLLKVPVASCAQHLDCASCLAHRDPYCGWCVLLGRCSRRSECSRGQGPEQWLWSFQPELGCLQ
modifications: biotin on the Avi-tag (in vitro, BirA enzyme)
notes: Plexin-B1, human, extracellular region residues 20-535; cloned as fragment 1-535 and secreted as 20-535; the Avi-tag stands between the C-terminus of the fragment and the 6xHis tag; The SPR experiments with the antibodies used the form without the Avi-tag, Plexin-B1 (20–535)-6xHis; The cell assays used full-length human Plexin-B1-FLAG (GenScript, pcDNA3.1); also called human recombinant Plexin-B1 …
binding result: binds
